Source: patent publication US20050084493A1 (Amgen, published 2005)

What was measured:
[1] = target: IL-1 receptor type I (IL-1R1) on SW982 synoviocytes / HUVEC (human) (UniProt P14778); assay: cell-based or functional assay
[2] = target: T1, IL-1β (Homo sapiens (Human), UniProt P01584 117-269); assay: cell-based or functional assay
[3] = target: T1, IL-1β; assay: ECL (Origen) competition of complex formation: antibody titrated against biotinylated sIL-1 receptor (1 nM), IL-1β (1 nM), ruthenium-tagged IL-1RacP (5 nM)
Experimental: The resulting complexes were captured using magnetic streptavidin-coated beads and an Origen® Analyzer (IGEN Inc.) measured an ECL signal proportional to the ruthenium tag captured in the complex to evaluate competition of complex formation.
After a 1-hour incubation, the resulting complexes were captured using magnetic streptavidin-coated beads. Competition of complex formation was evaluated using an Origen® Analyzer (IGEN Inc.), which measures an ECL signal proportional to the ruthenium tag captured in the complex.

IL-1 receptor type I (IL-1R1) on SW982 synoviocytes / HUVEC (human), sequence (P14778 18-569): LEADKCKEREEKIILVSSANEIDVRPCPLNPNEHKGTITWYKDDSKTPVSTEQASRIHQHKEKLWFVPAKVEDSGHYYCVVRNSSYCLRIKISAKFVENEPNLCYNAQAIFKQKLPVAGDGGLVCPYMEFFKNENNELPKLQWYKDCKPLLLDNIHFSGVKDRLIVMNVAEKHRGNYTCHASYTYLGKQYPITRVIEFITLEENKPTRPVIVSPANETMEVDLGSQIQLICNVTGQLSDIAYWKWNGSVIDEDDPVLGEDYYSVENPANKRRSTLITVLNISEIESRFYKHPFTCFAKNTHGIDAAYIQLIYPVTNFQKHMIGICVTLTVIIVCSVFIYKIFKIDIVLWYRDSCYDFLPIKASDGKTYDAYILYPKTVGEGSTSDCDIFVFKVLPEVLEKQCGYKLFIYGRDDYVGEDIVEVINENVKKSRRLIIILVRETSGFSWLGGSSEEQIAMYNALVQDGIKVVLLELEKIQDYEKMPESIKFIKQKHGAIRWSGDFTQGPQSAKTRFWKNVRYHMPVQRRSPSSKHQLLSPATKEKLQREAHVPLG

Molecule | IC50 (pM), IL-1β-dependent GROα production in HUVEC [1] [pM] | IC50 (pM), IL-1β-dependent GROα production in HUVEC [2] [pM] | IC50 [3] [pM]
IL-1ra (from UniProt P18510 26-177) (ligand) | 2930 | – | –
MAB201 murine monoclonal anti-IL-1β antibody (R&D Systems) (antibody, V domains shown, Commercial murine monoclonal; light chain is kappa; also called Mouse; mouse monoclonal MAB201) VH: QVTLKESGPGILKPSQTLSLTCSFSGFSLSTSGMGVGWIRQPSGKGLEWLAHIWWDGDESYNPSLKTRLTISKNTSRNQVFLKITTVDTVDTATYFCARNRYDPPWFVDWGQGTLVTVSS VL: DIQMTQTTSSLSASLGDRVTISCRASQDISNYLSWYQQKPDGTVKLLIYYTSKLHSGVPSRFSGSGSGTDYFLTISNLEQEDIATYFCLQGKMLPWTFGGGTKLEIK | – | 171 | 476
